# The Human Domainome abundance scans (Beltran et al. 2025)
# ± gives the uncertainty stated by the source.
# B1: POU domain, class 3, transcription factor 2, residues 356 to 411; numbered along this chain, P20265 (parent)
# chain: KKRTSIEVSVKGALESHFLKCPKPSAQEITSLADSLQLEKEVVRVWFCNRRQKEKR
# Variants of: B1
# Experiment: abundance fitness (aPCA) (normalised: wild type 0, dead -1); higher = more abundant; growth selection in yeast, the domain comes from the species named
# Conditions: Homo sapiens
row,Variant,abundance fitness
1,KKRTSKEVSVKGALESHFLKCPKPSAQEITSLADSLQLEKEVVRVWFCNRRQKEKR,0.103 ± 0.15
2,KKRTSDEVSVKGALESHFLKCPKPSAQEITSLADSLQLEKEVVRVWFCNRRQKEKR,-0.072 ± 0.13
3,KKRTSEEVSVKGALESHFLKCPKPSAQEITSLADSLQLEKEVVRVWFCNRRQKEKR,-0.091 ± 0.15
4,KKRTSLEVSVKGALESHFLKCPKPSAQEITSLADSLQLEKEVVRVWFCNRRQKEKR,0.045 ± 0.089
5,KKRTSYEVSVKGALESHFLKCPKPSAQEITSLADSLQLEKEVVRVWFCNRRQKEKR,-0.239 ± 0.16
6,KKRTSWEVSVKGALESHFLKCPKPSAQEITSLADSLQLEKEVVRVWFCNRRQKEKR,-0.289 ± 0.11
7,KKRTSFEVSVKGALESHFLKCPKPSAQEITSLADSLQLEKEVVRVWFCNRRQKEKR,-0.438 ± 0.17
8,KKRTSREVSVKGALESHFLKCPKPSAQEITSLADSLQLEKEVVRVWFCNRRQKEKR,-0.117 ± 0.084
9,KKRTSSEVSVKGALESHFLKCPKPSAQEITSLADSLQLEKEVVRVWFCNRRQKEKR,-0.053 ± 0.12
10,KKRTSHEVSVKGALESHFLKCPKPSAQEITSLADSLQLEKEVVRVWFCNRRQKEKR,-0.247 ± 0.17
11,KKRTSQEVSVKGALESHFLKCPKPSAQEITSLADSLQLEKEVVRVWFCNRRQKEKR,-0.226 ± 0.19
12,KKRTSAEVSVKGALESHFLKCPKPSAQEITSLADSLQLEKEVVRVWFCNRRQKEKR,-0.069 ± 0.14
13,KKRTSGEVSVKGALESHFLKCPKPSAQEITSLADSLQLEKEVVRVWFCNRRQKEKR,-0.119 ± 0.071
14,KKRTSTEVSVKGALESHFLKCPKPSAQEITSLADSLQLEKEVVRVWFCNRRQKEKR,-0.111 ± 0.16
15,KKRTSPEVSVKGALESHFLKCPKPSAQEITSLADSLQLEKEVVRVWFCNRRQKEKR,-0.213 ± 0.16
16,KKRTSCEVSVKGALESHFLKCPKPSAQEITSLADSLQLEKEVVRVWFCNRRQKEKR,-0.172 ± 0.11
17,KKRTSMEVSVKGALESHFLKCPKPSAQEITSLADSLQLEKEVVRVWFCNRRQKEKR,-0.049 ± 0.17
18,KKRTYIEVSVKGALESHFLKCPKPSAQEITSLADSLQLEKEVVRVWFCNRRQKEKR,-0.183 ± 0.17
19,KKRTLIEVSVKGALESHFLKCPKPSAQEITSLADSLQLEKEVVRVWFCNRRQKEKR,0.002 ± 0.085
20,KKRTPIEVSVKGALESHFLKCPKPSAQEITSLADSLQLEKEVVRVWFCNRRQKEKR,0.007 ± 0.11
21,KKRTCIEVSVKGALESHFLKCPKPSAQEITSLADSLQLEKEVVRVWFCNRRQKEKR,0.033 ± 0.096
22,KKRTIIEVSVKGALESHFLKCPKPSAQEITSLADSLQLEKEVVRVWFCNRRQKEKR,0.118 ± 0.16
23,KKRTRIEVSVKGALESHFLKCPKPSAQEITSLADSLQLEKEVVRVWFCNRRQKEKR,-0.105 ± 0.068
24,KKRTQIEVSVKGALESHFLKCPKPSAQEITSLADSLQLEKEVVRVWFCNRRQKEKR,0.095 ± 0.14

row,Variant,abundance fitness
1,KKRTGIEVSVKGALESHFLKCPKPSAQEITSLADSLQLEKEVVRVWFCNRRQKEKR,0.024 ± 0.072
2,KKRTAIEVSVKGALESHFLKCPKPSAQEITSLADSLQLEKEVVRVWFCNRRQKEKR,-0.001 ± 0.12
3,KKRTWIEVSVKGALESHFLKCPKPSAQEITSLADSLQLEKEVVRVWFCNRRQKEKR,-0.313 ± 0.11
4,KKRTMIEVSVKGALESHFLKCPKPSAQEITSLADSLQLEKEVVRVWFCNRRQKEKR,-0.018 ± 0.12
5,KKRTKIEVSVKGALESHFLKCPKPSAQEITSLADSLQLEKEVVRVWFCNRRQKEKR,0.14 ± 0.12
6,KKRTFIEVSVKGALESHFLKCPKPSAQEITSLADSLQLEKEVVRVWFCNRRQKEKR,-0.053 ± 0.18
7,KKRTVIEVSVKGALESHFLKCPKPSAQEITSLADSLQLEKEVVRVWFCNRRQKEKR,0.229 ± 0.096
8,KKRTTIEVSVKGALESHFLKCPKPSAQEITSLADSLQLEKEVVRVWFCNRRQKEKR,0.173 ± 0.1
9,KKRTDIEVSVKGALESHFLKCPKPSAQEITSLADSLQLEKEVVRVWFCNRRQKEKR,-0.174 ± 0.15
10,KKRTHIEVSVKGALESHFLKCPKPSAQEITSLADSLQLEKEVVRVWFCNRRQKEKR,0.095 ± 0.17
11,KKITSIEVSVKGALESHFLKCPKPSAQEITSLADSLQLEKEVVRVWFCNRRQKEKR,0.045 ± 0.15
12,KKSTSIEVSVKGALESHFLKCPKPSAQEITSLADSLQLEKEVVRVWFCNRRQKEKR,0.023 ± 0.1
13,KKWTSIEVSVKGALESHFLKCPKPSAQEITSLADSLQLEKEVVRVWFCNRRQKEKR,-0.273 ± 0.15
14,KKPTSIEVSVKGALESHFLKCPKPSAQEITSLADSLQLEKEVVRVWFCNRRQKEKR,-0.134 ± 0.15
15,KKYTSIEVSVKGALESHFLKCPKPSAQEITSLADSLQLEKEVVRVWFCNRRQKEKR,0.026 ± 0.18
16,KKKTSIEVSVKGALESHFLKCPKPSAQEITSLADSLQLEKEVVRVWFCNRRQKEKR,0.054 ± 0.21
17,KKNTSIEVSVKGALESHFLKCPKPSAQEITSLADSLQLEKEVVRVWFCNRRQKEKR,0.13 ± 0.16
18,KKLTSIEVSVKGALESHFLKCPKPSAQEITSLADSLQLEKEVVRVWFCNRRQKEKR,0.01 ± 0.087
19,KKTTSIEVSVKGALESHFLKCPKPSAQEITSLADSLQLEKEVVRVWFCNRRQKEKR,-0.009 ± 0.11
20,KKHTSIEVSVKGALESHFLKCPKPSAQEITSLADSLQLEKEVVRVWFCNRRQKEKR,0.002 ± 0.11
21,KKMTSIEVSVKGALESHFLKCPKPSAQEITSLADSLQLEKEVVRVWFCNRRQKEKR,0.031 ± 0.11
22,KKVTSIEVSVKGALESHFLKCPKPSAQEITSLADSLQLEKEVVRVWFCNRRQKEKR,0.051 ± 0.091
23,KKRTSIEFSVKGALESHFLKCPKPSAQEITSLADSLQLEKEVVRVWFCNRRQKEKR,0.065 ± 0.18
24,KKRTSIEHSVKGALESHFLKCPKPSAQEITSLADSLQLEKEVVRVWFCNRRQKEKR,0.128 ± 0.15

row,Variant,abundance fitness
1,KKRTSIEASVKGALESHFLKCPKPSAQEITSLADSLQLEKEVVRVWFCNRRQKEKR,0.202 ± 0.11
2,KKRTSIEDSVKGALESHFLKCPKPSAQEITSLADSLQLEKEVVRVWFCNRRQKEKR,-0.064 ± 0.14
3,KKRTSIENSVKGALESHFLKCPKPSAQEITSLADSLQLEKEVVRVWFCNRRQKEKR,0.212 ± 0.19
4,KKRTSIEESVKGALESHFLKCPKPSAQEITSLADSLQLEKEVVRVWFCNRRQKEKR,0.093 ± 0.12
5,KKRTSIELSVKGALESHFLKCPKPSAQEITSLADSLQLEKEVVRVWFCNRRQKEKR,0.007 ± 0.09
6,KKRTSIEMSVKGALESHFLKCPKPSAQEITSLADSLQLEKEVVRVWFCNRRQKEKR,0.046 ± 0.11
7,KKRTSIERSVKGALESHFLKCPKPSAQEITSLADSLQLEKEVVRVWFCNRRQKEKR,0.049 ± 0.094
8,KKRTSIECSVKGALESHFLKCPKPSAQEITSLADSLQLEKEVVRVWFCNRRQKEKR,-0.327 ± 0.14
9,KKRTSIEISVKGALESHFLKCPKPSAQEITSLADSLQLEKEVVRVWFCNRRQKEKR,0.051 ± 0.1
10,KKRTSIEQSVKGALESHFLKCPKPSAQEITSLADSLQLEKEVVRVWFCNRRQKEKR,0.069 ± 0.13
11,KKRTSIEPSVKGALESHFLKCPKPSAQEITSLADSLQLEKEVVRVWFCNRRQKEKR,0.119 ± 0.17
12,KKRTSIEGSVKGALESHFLKCPKPSAQEITSLADSLQLEKEVVRVWFCNRRQKEKR,0.091 ± 0.075
13,KKRSSIEVSVKGALESHFLKCPKPSAQEITSLADSLQLEKEVVRVWFCNRRQKEKR,-0.029 ± 0.081
14,KKRNSIEVSVKGALESHFLKCPKPSAQEITSLADSLQLEKEVVRVWFCNRRQKEKR,-0.032 ± 0.16
15,KKRGSIEVSVKGALESHFLKCPKPSAQEITSLADSLQLEKEVVRVWFCNRRQKEKR,-0.198 ± 0.088
16,KKRPSIEVSVKGALESHFLKCPKPSAQEITSLADSLQLEKEVVRVWFCNRRQKEKR,-0.101 ± 0.12
17,KKRKSIEVSVKGALESHFLKCPKPSAQEITSLADSLQLEKEVVRVWFCNRRQKEKR,-0.267 ± 0.14
18,KKRFSIEVSVKGALESHFLKCPKPSAQEITSLADSLQLEKEVVRVWFCNRRQKEKR,0.126 ± 0.23
19,KKRQSIEVSVKGALESHFLKCPKPSAQEITSLADSLQLEKEVVRVWFCNRRQKEKR,-0.107 ± 0.14
20,KKRWSIEVSVKGALESHFLKCPKPSAQEITSLADSLQLEKEVVRVWFCNRRQKEKR,-0.546 ± 0.12
21,KKRYSIEVSVKGALESHFLKCPKPSAQEITSLADSLQLEKEVVRVWFCNRRQKEKR,-0.209 ± 0.14
22,KKRLSIEVSVKGALESHFLKCPKPSAQEITSLADSLQLEKEVVRVWFCNRRQKEKR,-0.199 ± 0.085
23,KKRDSIEVSVKGALESHFLKCPKPSAQEITSLADSLQLEKEVVRVWFCNRRQKEKR,0.023 ± 0.16
24,KKRMSIEVSVKGALESHFLKCPKPSAQEITSLADSLQLEKEVVRVWFCNRRQKEKR,-0.015 ± 0.1

row,Variant,abundance fitness
1,KKRISIEVSVKGALESHFLKCPKPSAQEITSLADSLQLEKEVVRVWFCNRRQKEKR,0.053 ± 0.15
2,KKRHSIEVSVKGALESHFLKCPKPSAQEITSLADSLQLEKEVVRVWFCNRRQKEKR,-0.363 ± 0.13
3,KKRCSIEVSVKGALESHFLKCPKPSAQEITSLADSLQLEKEVVRVWFCNRRQKEKR,-0.287 ± 0.15
4,KKRVSIEVSVKGALESHFLKCPKPSAQEITSLADSLQLEKEVVRVWFCNRRQKEKR,-0.095 ± 0.087
5,KKRRSIEVSVKGALESHFLKCPKPSAQEITSLADSLQLEKEVVRVWFCNRRQKEKR,-0.356 ± 0.074
6,KKRESIEVSVKGALESHFLKCPKPSAQEITSLADSLQLEKEVVRVWFCNRRQKEKR,0.17 ± 0.18
7,KKRTSIYVSVKGALESHFLKCPKPSAQEITSLADSLQLEKEVVRVWFCNRRQKEKR,-0.358 ± 0.072
8,KKRTSILVSVKGALESHFLKCPKPSAQEITSLADSLQLEKEVVRVWFCNRRQKEKR,-0.177 ± 0.057
9,KKRTSIMVSVKGALESHFLKCPKPSAQEITSLADSLQLEKEVVRVWFCNRRQKEKR,0.032 ± 0.096
10,KKRTSIVVSVKGALESHFLKCPKPSAQEITSLADSLQLEKEVVRVWFCNRRQKEKR,-0.21 ± 0.071
11,KKRTSISVSVKGALESHFLKCPKPSAQEITSLADSLQLEKEVVRVWFCNRRQKEKR,0.191 ± 0.058
12,KKRTSICVSVKGALESHFLKCPKPSAQEITSLADSLQLEKEVVRVWFCNRRQKEKR,0.014 ± 0.073
13,KKRTSIGVSVKGALESHFLKCPKPSAQEITSLADSLQLEKEVVRVWFCNRRQKEKR,0.077 ± 0.081
14,KKRTSIDVSVKGALESHFLKCPKPSAQEITSLADSLQLEKEVVRVWFCNRRQKEKR,0.066 ± 0.077
15,KKRTSIAVSVKGALESHFLKCPKPSAQEITSLADSLQLEKEVVRVWFCNRRQKEKR,-0.039 ± 0.071
16,KKRTSINVSVKGALESHFLKCPKPSAQEITSLADSLQLEKEVVRVWFCNRRQKEKR,0.138 ± 0.079
17,KKRTSITVSVKGALESHFLKCPKPSAQEITSLADSLQLEKEVVRVWFCNRRQKEKR,0.221 ± 0.06
18,KKRTSIKVSVKGALESHFLKCPKPSAQEITSLADSLQLEKEVVRVWFCNRRQKEKR,-0.112 ± 0.092
19,KKRTSIWVSVKGALESHFLKCPKPSAQEITSLADSLQLEKEVVRVWFCNRRQKEKR,-0.242 ± 0.1
20,KKRTSIIVSVKGALESHFLKCPKPSAQEITSLADSLQLEKEVVRVWFCNRRQKEKR,-0.116 ± 0.081
21,KKRTSIRVSVKGALESHFLKCPKPSAQEITSLADSLQLEKEVVRVWFCNRRQKEKR,-0.014 ± 0.066
22,KKRTSIHVSVKGALESHFLKCPKPSAQEITSLADSLQLEKEVVRVWFCNRRQKEKR,0.028 ± 0.069
